B1: pH-response regulator protein palA/RIM20 (Saccharomyces cerevisiae), Q12033 (parent)
chain: MSELLAIPLKRTLEVDFATELSKLIDTTSFQTASFFQSDILKVVDARNNAIAPDISIDGLSALKEYYVILLQLEKKFPNNQIEFTWFQTLSQKSRGTSQYSLQWEKLTIIYNIGCMYSLLALNSNNDAAESLKTSCLYFQNAAGCFKHVLDHQKNLETIPVVDDATLNALTSLMLAQAQECFWFKAVQDKHKDSLIAKLSQQIVDFYCEAINDAQRGKLIRSDWINHLKAKKAYFSAVTYYRIALSFNEKKQFGNVVKALQMGLQFINESTLSSQAKFKTVVESSLKEAQRDNEFIYLQEVPSELPSIKPALMVKPSSSATLLPSIKKDETLFKDLIPIEVMEYCTAYNERQDEYVEQRVTNPLASLNKLLKESLTTFQIPQGLTKVSEAELSHYQASLNNLLINNKNVQVQLDNIEQILNEEAFTDNQLRLKHGTLNWTLPESSTTNTAYYEKLKKLRGYLDEGSAIDKQTNELFQSIDKNLIGSEIRLPESNDPLTNKIKMIIQERNDYIDRTRRKSSEYRILPKIITSYKKNGTVDFEPIFIGHLKYFDEDLRYVNSTKEENIKLIEEVNLSKKNNPGRSGIEPKKMVRIDPRELYIEDLRYSFKLLDEVKENLSAGTAFYENLITSTSNLYNEVQEYDTARRAEKARLDKSLTFEDQ

Variants of: B1
Settings: with pacc_yeast RIM101, P33400
Chain of pacc_yeast RIM101, P33400 (P33400 whole entry): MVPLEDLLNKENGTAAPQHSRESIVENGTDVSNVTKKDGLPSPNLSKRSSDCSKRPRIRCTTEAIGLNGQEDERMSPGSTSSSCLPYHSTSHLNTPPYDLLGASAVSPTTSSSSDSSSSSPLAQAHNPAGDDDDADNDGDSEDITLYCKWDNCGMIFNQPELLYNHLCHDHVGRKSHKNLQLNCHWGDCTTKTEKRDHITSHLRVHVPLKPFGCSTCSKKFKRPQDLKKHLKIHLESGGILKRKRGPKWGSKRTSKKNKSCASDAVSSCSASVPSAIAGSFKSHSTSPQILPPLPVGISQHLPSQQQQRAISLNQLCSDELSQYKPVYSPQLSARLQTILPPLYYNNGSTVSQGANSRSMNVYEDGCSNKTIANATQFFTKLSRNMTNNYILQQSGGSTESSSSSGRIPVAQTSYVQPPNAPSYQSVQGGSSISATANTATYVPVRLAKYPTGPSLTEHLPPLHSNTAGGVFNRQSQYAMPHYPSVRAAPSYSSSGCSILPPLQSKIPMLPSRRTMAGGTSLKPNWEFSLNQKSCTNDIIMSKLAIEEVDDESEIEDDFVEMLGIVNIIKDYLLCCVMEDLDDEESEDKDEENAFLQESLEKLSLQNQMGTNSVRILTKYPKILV

| Variant | effect of a mutation on the interaction |
| --- | --- |
| F623A;Y624A | disrupting interaction |
| Q177A;Q179A;E180A | disrupting interaction |
